# In US6114506, “Composition and method for enhancing fibrinolysis” (General Hospital Corporation, dated 2000):
# T1: human alpha-2-antiplasmin (human, UniProt P08697, 125I label in the radioimmunoassays of Example 1; biotin in the competition assay of Example 5; unlabelled in the ELISA, plasmin and clot lysis assays)
# T1 sequence: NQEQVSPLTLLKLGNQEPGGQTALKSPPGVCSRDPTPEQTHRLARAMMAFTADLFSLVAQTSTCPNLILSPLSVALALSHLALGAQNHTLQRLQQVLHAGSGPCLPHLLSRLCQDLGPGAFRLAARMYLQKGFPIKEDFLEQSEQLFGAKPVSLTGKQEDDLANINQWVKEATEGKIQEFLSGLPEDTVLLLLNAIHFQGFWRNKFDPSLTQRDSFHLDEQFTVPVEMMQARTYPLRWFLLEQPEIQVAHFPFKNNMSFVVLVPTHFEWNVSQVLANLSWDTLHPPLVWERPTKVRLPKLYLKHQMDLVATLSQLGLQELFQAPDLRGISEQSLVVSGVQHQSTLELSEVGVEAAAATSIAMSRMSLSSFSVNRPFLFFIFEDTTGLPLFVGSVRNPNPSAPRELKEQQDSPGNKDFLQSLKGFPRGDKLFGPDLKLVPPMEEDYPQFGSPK
# Tests used:
# [1] = target: T1, human alpha-2-antiplasmin
# [2] = target: T1, human alpha-2-antiplasmin; experiment: ELISA: plates coated with α2-antiplasmin (American Diagnostica), anti-human kappa conjugate
plasmin assay with chromogenic substrate: loss in activity [1] [%],binding result [2],Binder
20 to 30,,"h77A3-2 (humanized 77A3) (antibody, V domains shown) VH: QIQLVQSGAEVKKPGASVKISCKASGYTFTNYGMNWVRQAPGQGLEWMGWINTKSGEPTYAEEFKGRFTFTLDTSTSTAYLEIRSLRSDDTAVYFCARW VL: DIQMTQSPSSLSASVGDRVTITCRASGNIHNYLAWYQQKQGKSPQLLVYNAKTLASGVPSRFSGSGSGTDFTLTISSLQPEDFGSHY"
,binds,"h77A3-1 (humanized 77A3) (antibody, V domains shown) VH: QIQLVQSGSELKKPGASVKISCKASGYTFTNYGMNWVRQAPGQGLEWMGWINTKSGEPTYAEEFKGRFVFSLDTSVTTAYLQISSLKAEDTAVYFCARWVPGTYAMDYWGQGTTVTVSS VL: DIQMTQSPSSLSASVGDRVTITCRASGNIHNYLAWYQQKQGKSPQLLVYNAKTLASGVPSRFSGSGSGTDFTLTISSLQPEDFGSHYCQHFWTTPWTFGGGTKLEIK"
